Reference: publication doi:10.1101/2020.09.24.311712, “Surface condensation of a pioneer transcription factor on DNA”

Key:
Klf4-GFP = Klf4-GFP (Homo sapiens, UniProt O43474 1-513); test: EMSA; poly-d(IC) 37.5 ng; Kd plotted in ED Fig. 2c but value not in material; EMSA: 25 mM Tris pH 7.4, 125 mM KCl, 6% glycerol, 1 mM DTT, 0.1 mg/ml BSA, 7.5 nM Cy5-dsDNA, 37.5 ng poly-d(IC), 20 min at 4 °C; details: protein: recombinant; tags: C-terminal GFP; MBP removed with 3C protease; label: Cy5 at 3' end of strand 1 (so in the source); blunt
Klf4-GFP, sequence (O43474 whole entry): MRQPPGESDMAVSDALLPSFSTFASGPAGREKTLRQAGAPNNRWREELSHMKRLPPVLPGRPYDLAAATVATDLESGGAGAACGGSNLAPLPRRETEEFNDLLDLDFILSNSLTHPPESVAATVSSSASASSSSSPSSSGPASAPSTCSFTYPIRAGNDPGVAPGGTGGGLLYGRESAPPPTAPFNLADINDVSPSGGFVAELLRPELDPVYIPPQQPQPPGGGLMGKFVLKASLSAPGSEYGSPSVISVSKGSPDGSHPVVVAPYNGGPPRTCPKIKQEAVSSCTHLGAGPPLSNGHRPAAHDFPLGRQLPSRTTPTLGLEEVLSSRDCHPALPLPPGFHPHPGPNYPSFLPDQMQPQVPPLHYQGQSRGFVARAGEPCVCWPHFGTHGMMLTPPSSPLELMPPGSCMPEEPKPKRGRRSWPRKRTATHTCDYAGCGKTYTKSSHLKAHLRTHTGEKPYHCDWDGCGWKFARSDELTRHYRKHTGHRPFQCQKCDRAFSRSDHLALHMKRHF

MBP-Klf4-GFP = MBP-Klf4-GFP (Homo sapiens, UniProt O43474 1-513); test: EMSA; poly-d(IC) 37.5 ng; Kd value not in material; EMSA: 25 mM Tris pH 7.4, 125 mM KCl, 6% glycerol, 1 mM DTT, 0.1 mg/ml BSA, 7.5 nM Cy5-dsDNA, 37.5 ng poly-d(IC), 20 min at 4 °C; details: protein: recombinant, tags: N-terminal MBP (3C-cleavable), label: Cy5 at 3' end of strand 1 (so in the source), blunt
MBP-Klf4-GFP, sequence (O43474 whole entry): as above

B1: Klf4 specific dsDNA EMSA (dsDNA)
DNA 1: GGAGGGGTGTGGGGCTG
DNA 2: CAGCCCCACACCCCTCC
**Q.** Does B1 bind (Klf4-GFP)?
**A.** Result: binds

**Q.** Does B1 bind (MBP-Klf4-GFP)?
**A.** Result: binds
